Test: label from the status in PepcDB records

Row | Sequence | protein production
1 | MKLSSNNAETMESLRSERNQYRILVDITNSVLAHLDMDGLISEVSKEIHRFFGLNHISLMLCRTSSQNSHEGILYSSRYQTGKSVIRQQRKFSSANNKAEEIIHQNKPVLIDINKEDQDDVLIKRLVKQNMQTALLLPLAFNRKPLGLLILAHEISSVFTEETCQLLQQIAARIGIAIENAAAYEEITHLKDS | failed
2 | MADDQGRGRRRPLNEDDSSTSRGSGDGPRVKVFRGSSSGDPRADPRIEASRERRALEEAPRREGGPTERKPWGDQYDYLNTRPAELVSKKGTDGVPVMLQTNFFRLKTKPEWRIVHYHVEFEPSIENPRVRMGVLSNHANLLGSGYLFDGLQLFTTRKFEQEITVLSGKSKLDIEYKISIKFVGFISCAEPRFLQVLNLI | failed
3 | MIFNTLARYFLKRYLMTTIWFVLGVSSIIYLADFSETARRMSGLPGYSVPAALGLTALRLPLILQQTVPFIALFVGMTTLISLNRRYELVVTRAAGISAWQFILPFVLGAVFIGILSVMVLNPIAAWGQNKSLAMEAGLRNDAGGGRQQEIIPWMRQSSGGKDTIIGAKSFEDNGTMLLDVVLIDVDKDGNIVSRKDAKSAKLEDGYWLLNGVSETRAGHVPVRQESMQISTNLRREFVQERMTQTETVAFFDLSHKIEVAKSFGLSSKALETQYHFLLSTPLLLVAMTLIAATVSLKFSRFAQSRSVILGGIVSGFVLYVVTVLVRAFGSGGVVPPTVAVWVPVIVALALGATILLHQEDG | failed
4 | MATPQDKLHTVRLFGTVAADGLTMLDGAPGVRFRLEDKDNTSKTVWVLYKGAVPDTFKPGVEVIIEGGLAPGEDTFKARTLMTKCPLEHHHHHH | not failed
5 | MHSLARRALHTCNVPRDLNPVTFCDTAGEHPDRVGLDSNAAEAVWRSVEALYRTGVHPGIQLSLRYRGEQVLHRSIGHARGNGPHDPASLPRIPMTTDTPICFFSASKAVTALLMHMLSEQGLVNLMDPVSYYCPEFARNGKRTITVHQILSHRGGIPAIPRETPIDVLWDRDEIWRLLCAAKPVEVDGAKVAYHAITGGFVLQRVLEKVTGDTIESYLDRYLRRPMGMKWFTYGIAPEHLHELASNYATGPTPRFPVSWVVNRALGGDIRTVEKVTNDPRFQEAVIPAGNLCGTAEEMGRFFQMMLNGGSWDGKRICSELTVRRAIQQFGSLQMDRTMLVPMRFSAGMMLGSNPVGLWGQQSRYAFGHVGLINKLCWADPARDISVSLLNTGFPIVGHHLPALARFVYTVCKQFPVLPENQRRLVAA | failed
6 | MKKYLAGLAAVSVAGGAAPTLDSVQAAPEQNTQKAATTVQASASNNSSYTVNTSVLHVRAGSSTSHDIISRVYNGQSLNVIGEENGWFKININGKTGFVSGEFVSKSGAANNNVSTGGNNKVTADVLRVRTAPNTSSSVSGRVYAGQTLNVIGQENGWVKINHNGQVGYVSGEFVSGVSSNGGSSNNNTNNNNQEVKPASGNYTVNVSSLRVRTGPSTSHTTVGSVKKGQVVQVVGEVQDWFKINYAGQTAYISKDYVTKGGSNENVTEGNKQEQNNNGTIQTGGSYVVNATSLRVRTGPAAYHSVIGGVLNGTTLNVVGSENGWFKVNYQGKTGFVSSEFVKFVKGGTTTPEQPKQPEKPNQGTIGDYYINASALNVRSGEGTNYRIIGALPQGQKVQVISENSGWSKINYNGQTGYIGTRYLSKTPVGGAVDNKPNNNQNNNQNNNNNNNTGNNSGDSSSVLAYAKSMQGVPYVWGGTSANGVDCSGYIYHVFKKFGHNISRQSVAGYWSSLPKTSSPQPGDLIYFQNTYKSGPSHMGIYLGGGSFIQAGDKGVAIASLSNSYWKSHFLGYTKAP | failed
7 | MAKMIILPKLVQKSVVSPKQTSQERVVTSTFSPPKPAGENISVQRRCELSEYHASGHVISHLPPPFAVAKPTPTTSLLPQPVRLINADAEDASCSSTPSWRIKKSLTCVCFNRKRAYERICSNLTPLQEERLKRLRKRMKNYYDASRPDHQDALRALWSATYPDEKLQDLISDQWKNMGWQGKDPSTDFRGAGFISLENLLFFAKTFSTSFQRLLNKQGGKRAAWEYPFAVAGVNITFMIMQMLDLEASKPRSFIRLVFLQMLSESEWAFDLLYCVAFVVMDKQWLDKNATYMEFNDVLRCTRGQLERELMMDDVFRIEDMPSFSLLS | failed
8 | MIRLTIEETNLLSIYNEGGKRGLMENINAALPFMDEDMRELAKRTLAKIAPLTENEYAELAIFAADEVLEHHHHHH | not failed
9 | MKVNPDFFPLTQMAQRFVDQLAQCRRLGLTVLEASEHHVLIELPYSTELIGYPDTGVIHGGVITTLMDTACGSAVVSAIFQKYQSLEISPTLDLRVDYMKPAQPHKSVYGFAECYKLSSNIAFTRAIAYQDSIDDPIAHAVGSFMRISPEMVGDAFRQALIGLEHHHHHH | not failed
10 | MSELILHHYPTSLFAEKARLMLGFKGVNWRSVTIPSIMPKPDLTALTGGYRKTPVLQIGADIYCDTALMARRLEQEKASPAFYPQGQEFAVAGLAAWADSVLFLHAVSLVFQPESMAVRFAKVPPDAAKAFIADRSMLFNGGTASRPPVEQVKHQWPTFMSRLESQLSHGGDFLFGAPSIADFSVAHTLWFLKQTPVTAPFVDDYPSVSVWLDRVLGFGHGSLSDLSSAAAIEIASNATPAPLPDETFIDPNGFKAGDKVAIAAVDYGVEAVEGELMFTGREELILRREDNRAGVVHVHFPRLGFRVEKR | not failed
11 | MDRPETIAVKCEPMTVDSPSRPLKLVVLADLNFNPPETDDLDSSIPIPTPPPITRLSNEESHQEGGILTCKEVEPGEVEAKKISKVGKCRSRSKIESSSDCGVDADGDLANQGVPASREEKISNLKMGLIHVARKMPKNAHAHFILGLMFQRLGQSQKAIPEYEKAEEILLGCEPEIARPELLLLVQIHHGQCLLLDGFGDTDSVKELEGEELEEILSKLKDSIKLDVRQAAVWNTLGLMLLKAGCLMSAISVLSSLLALVPDNYDCLANLGVAYLQSGDMELSAKCFQDLVLKDHNHPAALINYAAELLCKHSSTVAGAGANGGADASEDQKAPMNVAKECLLAALRSDPKSAHAWVNLANSYYMMGDHRSSSKCLEKAAKLDPNCMATRFAVAVQRIKDAERSQDASDQLSWAGNEMASVIREGESVPIDPPIAWAGLAMAHKAQHEIAAAFVADRNELTEMEERAVYSLKQAVTEDPEDAVRWHQLGLHSLCSQQYKLSQKYLKAAVGRSRECSYAWSNLGISLQLSDEHSEAEEVYKRALTVSKEDQAHAILSNLGNLYRQKKQYEVSKAMFSKALELKPGYAPAYNNLGLVFVAERRWEEAKSCFEKSLEADSLLDAAQSNLLKATTMSRLCTCFSSSTVVRDS | failed
12 | ANSQLRKQRDENAELAERLASLLKMLPAGVVELSPDGRVIAENLAAESLISGCYIGEYWEAVLERLLTQEADGSFALEAGGESRRLTLQYQDLPASGGRIVLIHDV | failed
13 | MLKLLWIALGGSLGALCRYGLSVLARWGLPPTVPWGTLAANLVGCFLIGGLWVLAAQYSFSEELRVFIFTGGIGSLTTFSTYSLESLLLLREGRVWAGLANVLVSNVLGLVLVAIGAGCALFLLGGPVAAFGA | failed
14 | MANDPRHLPSRKLLVTCALPYANGSIHLGHMLEHIQADIWVRYQRLRGNTVNFICADDAHGTPIMLKAQQMGITPEEMIAAVSEEHQKDFAGFDISFDNYHSTHSEENRELASHIYLELKKNGFISSRTISQLFDPEKEMFLPDRFVKGTCPKCKSEDQYGDNCDNCGETYSPTELINPKSAVSGATPVMKDSEHFFFDLPQFESMLKEWTRSGSLQSETANKMQEWFESGLQQWDISRDAPYFGFEIPGEKDKFFYVWLDAPIGYMGSFKNLCNKRDDLDFDEYWNKDSKTELYHFIGKDIVYFHSLFWPAMLEGSGFRKPNNVFVHGYVTVNGAKMSKSKGTFVKASTYLDHLDPECLRYYYAAKLNSRIDDLDLNLEDFTQRVNADVVNKIVNLASRNAGFIAKRFEGKLSDNFAEPELYNEFVAAADRIAELFEAREFGRAIREITALADKANQYVDEKAPWVVAKEEGKDQELQEICSVGINLFRVLMTYLKPVMPALAARTEAFLNQELTWEGIAQPLTGHEITKFKALFNRIDPKNIEAMIEASKEDAAAEMAAKEKAEAAKTETELSKDPIADEIEFDTFAQVDLRIARIISCEEVPKANKLLKFQLDIGGETRQVFSGIKSAYKPEELEGKLTVMVANLKPRKMKFGMSEGMILAAGPGGSDLWILEPHEGAQPGMRVM | failed
15 | MLYFDHWTKVPADIWRWPNFSPEEIACRSTGKVGIDPQAMDKLQALRDRLGAPLMLNSAYRSPEHNRAEGGAPASEHLKARAFDVSMINHDPAEFEAAARAVGFTGFGFYRRNNFIHVDIGPAREWGNRWFDRVPHGAPLRPAPRFSPPPKLRPETLAEDRGARGTALGAGGGVALIGALGNVVGDLNPTAQAIAFGGAIVLAASLAYLIRDKIREWA | failed
16 | MELYQDNKLNNVGNIEINQCDGVIKKENDLHVSVIKPITKKIIHCDNMENKMKINAFYKPVELVEEIKNYVHKGDTHLVKLYEDFKNKKDKKVKMKNEYMTKLKNLHILNMINNKKKENECGVVNKNNIVHFNLFNENEDVTPKIETVYIPKLEKNIEVVSHLKENVNVDYTYMVPKPVVIPIEVPILKFRDHFKIIPIRKKIIPVIKYTDNIIYVDCCVEKPYIVYENVIIPVPCDIPIEQKKYIDKVPPI | failed
17 | MALLCYNRGCGQRFDPETNSDDACTYHPGVPVFHDALKGWSCCKRRTTDFSDFLSIVGCTKGRHNSEKPPEPVKPEVKTTEKKELCELKPKFQEHIIQAPKPVEAIKRPSPDEPMTNLELKISASLKQALDKLKLSSGNEENKKEEDNDEIKIGTSCKNGGCSKTYQGLESLEEVCVYHSGVPIFHEGMKYWSCCRRKTSDFNTFLAQEGCTKGKHMWTKKDAGKKVVPCRHDLHQTGGEVTISVYAKNSLPELSRVEANSTLLNVIIVFEGEKEFDQNVKLWGVIDVKRSYVTMTATKIEITMRKAEPMQWASLELPAAKKQEKQKDDTTD | not failed
18 | MTSGGNSIEPSVVAEAEKMLFCYQYDQTITISITSSADPCPLCNGGFLDEYVDPNPNPIPNLILPMSDPISSRFSFIPVMDFTNPSFLGESMEPQSTQQQLNAFDPNQLSDQANPLAGNHGDYFFGRGLEDLI | failed
19 | MLTQEQIDGIYEDLEHPFHFLWFDIGDAHGVSSGETDPASFEERKKDFLFLVEKLLDEGKLKLGNRKTELIIDGTTAELVEMFRKSFPASDEEMLEGLWLVTEDCPFVAVWLFEGENGEDYYGWC | failed
20 | MFTFISIMAVGVLIGYPLRHKSQVRKITPLIHIVVCLLLFLLGLSIGLNRLIIDNLGYFCGQAAVISSLSILGSMMASLAVYHIFF | failed
21 | GQDYLDIIGRLLPVLPYNLAIIGADGQVLLMNPPMSRITGMSLRQFVMYPSDWVVQEDKAAVADAVRRYSSGRALSGEISVRLIAKPEETVILTLTGIRHLGESALMISLQESASENEIKQQMAQTTRMQAIGQLAGGVAHDFNNILTAI | failed
22 | MSLRDTQTQLRNEMIYSVFVRNYSEAGNFAGVTADLQRIKDLGTDILWLLPINPIGEVNRKGTLGSPYAIKDYRGINPEYGTLADFKALTDRAHELGMKVMLDIVYNHTSPDSVLATEHPEWFYHDADGQLTNKVGDWSDVKDLDYGHHELWQYQIDTLLYWSQFVDGYRCDVAPLVPLDFWLEARKQVNAKYPETLWLAESAGSGFIEELRSQGYTGLSDSELYQAFDMTYDYDVFGDFKDYWQGRSTVERYVDLLQRQDATFPGNYVKMRFLENHDNARMMSLMHSKAEAVNNLTWIFMQRGIPLIYNGQEFLAEHQPSLFDRDTMVADRHGDVTPLIQKLVTIKQLPLLRAADYQLAVVEEGIVKITYRAAGEALTAWIPLKGQVTAVATKLAAGSYQNLLTDGPTEVVDGKLTVDGQPVLIKYVTNTAVTKVADQSNEGHHHHHH | not failed
23 | MATDTTVQLRAGWQGRFYEDFAVGDVYKHPYGRTVTETDNVWFTNLTMNANPMHFNAAYASGTEFDERLVNGLFVIALSVGMSVVDVSANATANLGYDDIQHHAPVFHGDTLFAESEVLSKRESESRPHVGMVTTELRTYTQDGELVLSLERTPMVRKRGLEHHHHHH | not failed
